The test system of series [1] is transgenic plants expressing full-length HopM1. The series can be described thus: DEX spraying of transgenic plants expressing full-length HopM1: leaf necrosis. It is filed as in vivo, Arabidopsis. The procedure: (§1) Following inoculation, infected plants were monitored daily over a 3- to 4-day period for symptom development and bacterial multiplication. For experiments described in FIGS. 1 and 5, plants were sprayed with 30 μM dexamethasone (DEX) 24 h before bacterial inoculation (1×10^6 cfu/ml).

Series [2] has as its system HopM1-mediated destabilization of AtMIN7. The series can be described thus: Immunoblot of HopM1-mediated destabilization of AtMIN7 with protease/proteasome inhibitors. It is filed as cell-based. As to conditions: N. benthamiana leaves co-expressing AtMIN7::HA and 6×His::HopM11-712. Background: A western blot detects proteins with antibodies after separation by electrophoresis.

A further series has as its target T1, AtMIN7-HA (Arabidopsis thaliana, UniProt F4IXW2, DEL212-213/INS429[…]).
T1 construct: expressed in transfected cells; host or cells: Nicotiana benthamiana leaves, Agrobacterium tumefaciens C58C1 co-infiltration (pBI121-AtMIN or pBAR1-AtMIN)
The series can be described thus: Protein pull-down assay and immunoblot in N. benthamiana leaves. As to conditions: transient co-expression in N. benthamiana leaves, Ni-NTA pull-down. It is filed as binding. The source says: N. benthamiana plants were transiently transformed with HopM1 and AtMIN proteins. In brief, fully expanded N. benthamiana leaves were co-infiltrated with Agrobacterium tumefaciens C58 C1 (for an example of co-infiltration techniques, see, Hellens, et al. (2005) Plant Methods, 1:13; herein incorporated by reference) comprising plasmids and genes described herein (for example, see, Bechtold, et al. (1993) Comptes Rendus De L Academie Des Sciences Serie Iii-Sciences De La Vie-Life Sciences 316(10):1194-1199; herein incorporated by reference).
In brief: leaf disc fractions were homogenized in 1×SDS-polyacrylamide gel electrophoresis (PAGE) sample buffer, boiled for 5 min, and centrifuged for 2 minutes. Proteins in the supernatant were separated on SDS-PAGE gels and transferred to Immobilon-P membrane for immunoblotting procedures (Millipore Corp., Bedford, Mass.).
Protein pull-down analysis methods: N. benthamiana leaf discs were homogenized in lysis buffer (50 mM Tris-HCl pH=8.0, 250 mM NaCl, 10 mM β-mercaptoethanol, 1% Triton X100, 1 mM PMSF, plant protease inhibitor cocktail [Sigma Co.]). Total protein extracts were collected after centrifugation of the homogenate at 20,000-x g for 15 min at 4° C. to remove insoluble materials. […] AtMIN10-HA was detected using the HA epitope antibody.

A further series has as its system Pst DC3000 ΔCEL mutant. Description: Complementation of virulence defect in transgenic Arabidopsis expressing HopM1 or truncated derivatives. As to conditions: protein expressed in transgenic Arabidopsis after DEX. It is filed as in vivo. The procedure: as §1
(§2) Leaves were harvested and surface sterilized as follows: 1) whole leaves were removed from a host plant and gently mixed in a 70% ethanol solution for 1 minute. Leaves were blotted briefly on paper towels then rinsed in sterile distilled water for 1 minute, then blotted dry on paper towels. Leaf disks were excised from leaves with a 0.5 cm^2 or smaller cork borer, depending on the size of the sample leaves; 2) leaf disks from the leaves of 2 or more independent replicate plants were pooled for a single tissue sample and placed in a 1.5-mL microfuge tube with 100 μL sterile distilled water, the amount of leaf tissue per tube was recorded as leaf surface area. Three or more samples were harvested for each time point. […] The number of serial dilutions necessary to get countable colonies were determined for each sample, however dilutions to 10^−7 were usually sufficient for any bacterial strain; 7) The samples were plated on the appropriate medium (e.g., Low salt Luria Bertani) supplemented with the necessary antibiotics to select for the specific inoculated bacterial strain. […]

For a further series, the system named is AtMIN7. Description: Detection of polyubiquitinated AtMIN7 in planta (western blot, ubiquitin antibody). It is filed as cell-based, Nicotiana benthamiana. The conditions noted are these: MG132-treated N. benthamiana leaves. The source says: Left: AtMIN7::HA and 6×His::HopM1-300, 6×His::HopM301-712 or 6×His::HopM1-712 were transiently co-expressed in MG132-treated N. benthamiana leaves. Ubiquitinated proteins were detected by western blot (WB) with a polyclonal ubiquitin (Ub) antibody (Sigma Co.). Right: AtMIN7::HA and 6×His::HopM1-712 were transiently co-expressed in 1% DMSO(−)- or MG132-treated N. benthamiana leaves. AtMIN7 was immunoprecipitated (IP) using a polyclonal AtMIN7 antibody. Ubiquitinated AtMIN7 protein was detected by western blot (WB) with a polyclonal ubiquitin (Ub) antibody (Sigma Co.). See Materials and Methods for transient expression and immunoprecipitation of AtMIN7 and HopM1 in N. benthamiana leaves.

For the next series, the system named is Pst DC3000. The series can be described thus: Bacterial multiplication and disease symptoms in transgenic Arabidopsis expressing HopM1 truncated derivatives. It is filed as in vivo. As to conditions: fragment expressed in transgenic Arabidopsis. The procedure: as §1, §2
Series [3] concerns Pst DC3000 ΔCEL mutant-pORF43 bacteria. The description is as above. Format: in vivo. As to conditions: fragment expressed in transgenic Arabidopsis, compared with Col-0 gl1 or other truncated derivatives. The procedure: as §1, §2

Residues, ends and D or L forms follow the SMILES beside them. *: point of attachment. Cbz = O=C(OCc1ccccc1)*

T1 sequence (F4IXW2 with tags, fused parts or gaps DEL212-213/INS429[withheld]): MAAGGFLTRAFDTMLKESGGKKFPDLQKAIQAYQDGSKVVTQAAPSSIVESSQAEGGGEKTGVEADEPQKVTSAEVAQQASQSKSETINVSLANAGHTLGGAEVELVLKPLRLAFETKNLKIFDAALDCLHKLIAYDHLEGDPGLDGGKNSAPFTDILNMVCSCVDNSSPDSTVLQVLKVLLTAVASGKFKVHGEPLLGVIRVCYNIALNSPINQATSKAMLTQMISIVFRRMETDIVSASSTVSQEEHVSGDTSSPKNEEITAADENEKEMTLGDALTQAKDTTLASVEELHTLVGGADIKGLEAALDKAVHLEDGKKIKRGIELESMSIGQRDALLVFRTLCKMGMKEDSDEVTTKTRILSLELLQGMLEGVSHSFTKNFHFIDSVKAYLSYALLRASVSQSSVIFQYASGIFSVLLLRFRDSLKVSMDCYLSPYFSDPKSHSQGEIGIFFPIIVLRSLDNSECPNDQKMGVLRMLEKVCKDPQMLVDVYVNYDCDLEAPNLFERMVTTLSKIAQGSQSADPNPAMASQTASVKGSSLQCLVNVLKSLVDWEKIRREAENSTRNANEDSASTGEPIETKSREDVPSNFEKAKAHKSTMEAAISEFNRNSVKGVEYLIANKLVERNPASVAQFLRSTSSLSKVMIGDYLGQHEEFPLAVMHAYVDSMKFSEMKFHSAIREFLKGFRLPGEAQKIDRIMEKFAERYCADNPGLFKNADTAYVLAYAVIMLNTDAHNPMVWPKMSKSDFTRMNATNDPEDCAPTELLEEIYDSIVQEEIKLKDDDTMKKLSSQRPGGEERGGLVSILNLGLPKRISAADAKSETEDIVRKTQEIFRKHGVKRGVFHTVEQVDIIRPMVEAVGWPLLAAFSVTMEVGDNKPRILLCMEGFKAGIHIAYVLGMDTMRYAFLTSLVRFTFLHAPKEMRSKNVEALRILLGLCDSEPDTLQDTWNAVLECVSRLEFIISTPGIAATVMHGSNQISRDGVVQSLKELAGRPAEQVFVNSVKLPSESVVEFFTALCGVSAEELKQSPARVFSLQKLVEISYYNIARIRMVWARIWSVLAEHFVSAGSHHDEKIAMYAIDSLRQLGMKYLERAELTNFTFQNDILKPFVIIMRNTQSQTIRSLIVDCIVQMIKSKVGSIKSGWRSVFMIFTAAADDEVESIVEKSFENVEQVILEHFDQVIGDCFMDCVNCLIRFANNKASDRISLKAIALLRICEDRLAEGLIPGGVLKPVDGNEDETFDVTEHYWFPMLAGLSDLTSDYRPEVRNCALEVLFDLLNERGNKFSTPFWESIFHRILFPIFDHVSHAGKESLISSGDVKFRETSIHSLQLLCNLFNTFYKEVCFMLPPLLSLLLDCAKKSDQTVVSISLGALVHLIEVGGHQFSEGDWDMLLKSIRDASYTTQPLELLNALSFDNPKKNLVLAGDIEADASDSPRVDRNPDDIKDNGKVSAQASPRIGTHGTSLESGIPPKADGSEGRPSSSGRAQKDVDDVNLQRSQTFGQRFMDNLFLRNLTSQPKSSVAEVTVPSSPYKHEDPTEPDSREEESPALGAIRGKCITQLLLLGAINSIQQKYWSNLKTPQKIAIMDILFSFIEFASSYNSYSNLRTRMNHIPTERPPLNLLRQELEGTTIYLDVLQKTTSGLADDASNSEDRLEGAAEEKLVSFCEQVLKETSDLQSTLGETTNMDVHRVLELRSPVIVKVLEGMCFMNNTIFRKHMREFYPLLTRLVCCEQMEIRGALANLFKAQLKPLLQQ

As to `C[C@@H]1C[C@H]2[C@@H]3CCC4=CC(=O)C=C[C@]4(C)[C@@]3(F)[C@@H](O)C[C@]2(C)[C@@]1(O)C(=O)CO` [DEX, dexamethasone], the leaf necrosis entry in series [1] (0.003 μM DEX spray) is “did not induce leaf necrosis”. For the same molecule, the “time to rapid leaf necrosis” value in series [1] (30 μM DEX spray) is reported as ≤ 10 h. Take `CC(C)C[C@@H](C=O)NC(=O)[C@H](CC(C)C)NC(=O)[C@H](CC(C)C)NC(=O)OCc1ccccc1` [MG132] (Cbz-Leu-Leu-Leu-aldehyde): the “effect on HopM1-mediated destabilization of AtMIN7” value in series [2] is listed as “blocked”. Still for that read-out and setting: the entry for `CC[C@H](C)[C@H](NC(=O)[C@H]([C@@H](C)CC)N(C)C(C)=O)C(=O)N[C@H](C(=O)N[C@@H](CC(C)C)C(=O)[C@@]1(C)CO1)[C@@H](C)O` [epoxomicin] is “blocked”.

B1: 6×His-HopM1301-712: 6×His-tagged C-terminal HopM1 fragment, amino acids 301-712 (protein)
chain: GPIVAAAVPQFLSSMTHLGYVRLSTSDKLRDTIPETSSDANMLKASIIGMVAGIAHETVNSVVKPMFQAALQKTGLNERLNMVPMKAVDTNTVIPDPFELKSEHGELVKKTPEEVAQDKAFVKSERALLNQKKVQGSSTHPVGELMAYSAFGGSQAVRQMLNDVHQINGQTLSARALASGFGGAVSASSQTLLQLKSNYVDPQGRKIPVFTPDRAESDLKKDLLKGMDLREPSVRTTFYSKALSGIQSSALTSALPPVTAQAEGASGTLSAGAILRNMALAATGSVSYLSTLYTNQSVTAEAKALKAAGMGGATPMLDRTETALNNIRHPNRESLPHTFQKSTLSGIPRVAENAYHMGRGALQLPTQMAVDTVRVVDEGVLNAVASAREALKQPTKDDDALRALEEGLLDPR
modifications: left off: small tags and cut ends
Consider B1, for which, in the series with AtMIN7-HA, the “physical interaction with AtMIN7-HA” value was “no interaction”.

B2: full-length HopM1: Pst DC3000 HopM1, a 712-aa type III effector virulence protein (SEQ ID NO:34) (protein)
chain: MISSRIGGAGGVELSRVNQQHDTVPAQTAHPNAVTAGMNPPLTPDQSGSHATESSSAGAARLNVAARHTQLLQAFKAEHGTAPVSGAPMISSRAALLIGSLLQAEPLPFEVMAEKLSPERYQLKQFQGSDLQQRLEKFAQPGQIPDKAEVGQLIKGFAQSVADQLEHFQLMHDASPATVGQHAKADKATLAVSQTALGEYAGRASKAIGEGLSNSIASLDEHISALDLTLQDAEQGNKESLHADRQALVDAKTTLVGLHADFVKSPEAKRLASVAAHTQLDNVVSDLVTARNTVGGWKGAGPIVAAAVPQFLSSMTHLGYVRLSTSDKLRDTIPETSSDANMLKASIIGMVAGIAHETVNSVVKPMFQAALQKTGLNERLNMVPMKAVDTNTVIPDPFELKSEHGELVKKTPEEVAQDKAFVKSERALLNQKKVQGSSTHPVGELMAYSAFGGSQAVRQMLNDVHQINGQTLSARALASGFGGAVSASSQTLLQLKSNYVDPQGRKIPVFTPDRAESDLKKDLLKGMDLREPSVRTTFYSKALSGIQSSALTSALPPVTAQAEGASGTLSAGAILRNMALAATGSVSYLSTLYTNQSVTAEAKALKAAGMGGATPMLDRTETALNNIRHPNRESLPHTFQKSTLSGIPRVAENAYHMGRGALQLPTQMAVDTVRVVDEGVLNAVASAREALKQPTKDDDALRALEEGLLDPR
modifications: Pseudomonas syringae pv. tomato str. DC3000
For B2, the “complementation of the virulence defect (multiplication, chlorosis) of the Pst DC3000 ΔCEL mutant” value in the series with Pst DC3000 ΔCEL mutant is given as “almost fully complemented”. The “polyubiquitination of AtMIN7 in vivo” value with AtMIN7 is “enhanced”.

B3: HopM1101-712: HopM1 truncated derivative lacking the first 100 aa (SEQ ID NO:98) (protein, listed as Pseudomonas syringae)
chain: LLQAFKAEHGTAPVSGAPMISSRAALLIGSLLQAEPLPFEVMAEKLSPERYQLKQFQGSDLQQRLEKFAQPGQIPDKAEVGQLIKGFAQSVADQLEHFQLMHDASPATVGQHAKADKATLAVSQTALGEYAGRASKAIGEGLSNSIASLDEHISALDLTLQDAEQGNKESLHADRQALVDAKTTLVGLHADFVKSPEAKRLASVAAHTQLDNVVSDLVTARNTVGGWKGAGPIVAAAVPQFLSSMTHLGYVRLSTSDKLRDTIPETSSDANMLKASIIGMVAGIAHETVNSVVKPMFQAALQKTGLNERLNMVPMKAVDTNTVIPDPFELKSEHGELVKKTPEEVAQDKAFVKSERALLNQKKVQGSSTHPVGELMAYSAFGGSQAVRQMLNDVHQINGQTLSARALASGFGGAVSASSQTLLQLKSNYVDPQGRKIPVFTPDRAESDLKKDLLKGMDLREPSVRTTFYSKALSGIQSSALTSALPPVTAQAEGASGTLSAGAILRNMALAATGSVSYLSTLYTNQSVTAEAKALKAAGMGGATPMLDRTETALNNIRHPNRESLPHTFQKSTLSGIPRVAENAYHMGRGALQLPTQMAVDTVRVVDEGVLNAVASAREALKQPTKDDDALRALEEGLLDPR
With B3, the “complementation of the virulence defect (multiplication, chlorosis) of the Pst DC3000 ΔCEL mutant” value with Pst DC3000 ΔCEL mutant is on record as “partially restored”.

B4: HopM11-300: N-terminal protective fragment of HopM1, amino acids 1-300 (SEQ ID NO:82) (protein, listed as Pseudomonas syringae)
chain: MISSRIGGAGGVELSRVNQQHDTVPAQTAHPNAVTAGMNPPLTPDQSGSHATESSSAGAARLNVAARHTQLLQAFKAEHGTAPVSGAPMISSRAALLIGSLLQAEPLPFEVMAEKLSPERYQLKQFQGSDLQQRLEKFAQPGQIPDKAEVGQLIKGFAQSVADQLEHFQLMHDASPATVGQHAKADKATLAVSQTALGEYAGRASKAIGEGLSNSIASLDEHISALDLTLQDAEQGNKESLHADRQALVDAKTTLVGLHADFVKSPEAKRLASVAAHTQLDNVVSDLVTARNTVGGWKGA
As for B4, the “physical interaction with AtMIN7-HA” value in the series with AtMIN7-HA is on record as “physical interaction”. Moreover, in the series on Pst DC3000, the “susceptibility to Pst DC3000” value is recorded as “still susceptible”. The “disease symptoms (necrosis and chlorosis) and bacterial multiplication within plants” value in series [3] is “significantly reduced”.
